Residue numbers refer to the chain shown, from its start.

From patent US20080008703A1 (YUHAN, published 2008) come the findings set out here.

The target in experiment [1] is T1, recombinant human tumor necrosis factor-α (Biosource, USA) (human, UniProt P01375 77-233). The experiment is described as follows: cell-based or functional assay.
Experiment [2] deals with T1, recombinant human tumor necrosis …. As to the kind of experiment: SPR (Biacore2000), hTNF-α immobilized on CM5 chip, antibody 25-400 nM as analyte. The procedure:
(§1) Then, association and dissociation constants of the reactions were measured by Biacore2000 (Biacore, Sweden).

Experiment [3] has the same target. As to the kind of experiment: competitive ELISA (Friguet method), antibody pre-incubated with soluble hTNF-α, plate coated with hTNF-α. The procedure: For antibody quantification, 100 ng of goat anti-human immunoglobulin G.A.M (Zymed Laboratories Inc., USA) was distributed into each well of a microplate (Dynatech Laboratories Inc., USA) and the well plate was kept at 4° C. overnight to coat it with the immunoglobulin. At this time, mouse monoclonal antibody TSK114 was used as a control.
Each of the reactants was added to the well plate coated with 0.4 μg of the antigen and the well plate was kept at 37° C. for about 1.5 hrs. A goat anti-human polyclonal antibody (BioRad, USA) conjugated with horseradish peroxidase was diluted at a ratio of 1:1000 and 100 μl of the diluted antibody solution was added to each well. The well plate was kept at 37° C. for 1 hr. After the reaction was completed, the optical density of each well was measured using a horseradish peroxidase substrate kit (BioRad, USA).
Concentrations of the antibody bound to the antigen and the unbound antibody were calculated from the measured optical density, and antigen-binding affinity of the humanized antibodies were determined therefrom (Friguet B. et al., J. Immunol. Meth., 77: 305-319, 1985).

For experiment [4] the target is unchanged. As to the kind of experiment: SPR (Biacore2000), hTNF-α immobilized. The procedure:
as §1

T1 sequence (P01375 77-233 limits assumed): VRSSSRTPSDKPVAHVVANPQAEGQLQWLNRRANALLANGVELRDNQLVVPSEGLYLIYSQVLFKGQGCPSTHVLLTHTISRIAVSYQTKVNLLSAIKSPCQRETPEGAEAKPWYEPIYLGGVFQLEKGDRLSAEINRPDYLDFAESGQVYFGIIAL

B1: mouse monoclonal antibody TSK114 (antibody, V domains shown)
VH: QVQLVQSGPELKKPGETVKISCKASGYTFTHYGMNWVKQAPGEGLKWMGWINTNTGEPRYDEEFKGRFAFSLETSASTAYLQINNLRREDTATYFCARYDSRGFDCWGQGTTLTVSS
VL: QIVLTQSPAIMSASLGERVTMTCTASSSISYNYFHWYQQRPGSSPKLWIYSSSNLASGVPPRISGSGSGTSYSLTISSMEAEDAATYYCHQYERSPWTFGGGTKLEIKR
notes: Mouse monoclonal antibody (deposits KCTC 10514BP and KCTC 10515BP); also called Mouse antibody TSK114
In the case of B1, the “IC50 (concentration of the antibodies inhibiting cell death by 50%), WHEI 164 cells, MTT” value in experiment [1] came out at 4.7 ng/mL. For the same molecule, in experiment [2], the Kd amounted to 0.00579 nM, the koff is 2.39e-07 s⁻¹ and the kon is 41200 M⁻¹ s⁻¹. Further, in experiment [3], the Kd is 0.14 nM.

B2: humanized antibody YHB1411 (antibody, V domains shown)
VH: QVQLVQSGPELKKPGASVKVSCKASGYTFTHYGMNWVRQAPGKGLEWMGWINTNTGEPRYDEEFKGRVTMTRDTSASTAYMELSSLRSEDTAVYYCARYDSRGFDCWGQGTTVTVSS
VL: QIVMTQSPSSLSASVGERVTITCTASSSISYNYFHWYQQKPGSAPKLWIYSSSNLASGVPSRFSGSGSGTDFTFTISSLQPEDIATYYCHQYERSPWTFGGGTKVEIKR
notes: Human heavy and kappa light constant regions come from pHAB-HC and pHAB-KC
Consider B2, for which, in experiment [1], the “IC50 (concentration of the antibodies inhibiting cell death by 50%), WHEI 164 cells, MTT” value worked out at 6.7 ng/mL. Further, in experiment [3], the Kd was 0.2 nM.

B3: humanized antibody YHB1411-2 (antibody, V domains shown)
VH: B2 VH
VL: B2 VL with Q1D
notes: Human heavy and kappa light constant regions come from pHAB-HC and pHAB-KC; also called YBB1411-2
Take B3: the “IC50 (concentration of the antibodies inhibiting cell death by 50%), WHEI 164 cells, MTT” value in experiment [1] was determined as 5.5 ng/mL. Besides, in experiment [2], the Kd was determined as 0.00171 nM, the koff turned out to be 6.8e-08 s⁻¹ and the association rate constant (kon) turned out to be 39600 M⁻¹ s⁻¹. Moreover, in experiment [4], the “fold higher antigen binding affinity than mouse monoclonal antibody TSK114” value was around 3 fold. Also, the Kd in experiment [3] stood at 0.2 nM.

B4: humanized antibody YHB1406-2 (antibody, V domains shown)
VH: B2 VH with V113L
VL: B2 VL with Q1D
notes: as for B2
As to B4, the “IC50 (concentration of the antibodies inhibiting cell death by 50%), WHEI 164 cells, MTT” value in experiment [1] is 6.5 ng/mL. For the same molecule, the Kd in experiment [3] was 0.29 nM.

B5: humanized antibody YHB1406 (antibody, V domains shown)
VH: B2 VH with K43Q
VL: B2 VL
notes: Human heavy chain constant region comes from vector pHAB-HC and human kappa light chain constant region from pHAB-KC
On to B5, for which, in experiment [1], the “IC50 (concentration of the antibodies inhibiting cell death by 50%), WHEI 164 cells, MTT” value amounted to 9.2 ng/mL. For the same molecule, the Kd in experiment [3] is 0.22 nM.
